Source: patent US20260098102A1 (NATIONAL UNIVERSITY CORPORATION KOBE UNIVERSITY, published 2026)

Molecular target: T1, human SIRPB (human, UniProt O00241 30-398)
T1 construct: whole, on cells; FLAG-tagged (pFLAG V5-DEST), on CHO-K1 cells; also called SIRPβ1; signal regulatory protein β1
Test: flow cytometry on CHO-K1 cells expressing FLAG-tagged human SIRPB; PE anti-human IgG; MFI standardized to secondary antibody alone
Description: SIRPβ1 (signal regulatory protein β1: the amino acid sequence thereof is published as RefSeq accession number NP_006056) and SIRPγ (signal regulatory protein γ: the amino acid sequence thereof is published as RefSeq accession number NP_061026) are molecules belonging to the SIRPA family. In the present invention, “SIRPα” may be referred to as “SIRPA,” “SIRPβ1” may be referred to as […] and “SIRPγ” may be referred to as “SIRPG.” CHO-K1 cells were prepared in a 10% FBS-containing Ham's F-12K medium at 3.3×10⁵ cells/mL and cultured overnight at 37° C. under a 5% CO₂ condition. pFLAG V5-DEST-human SIRPβ, pFLAG V5-DEST-human SIRPG, or pFLAG V5-DEST was introduced into the cells using Lipofectamine LTX (Invitrogen), and cells were cultured in a 10% FBS-containing Ham's F-12K medium at 37° C. under a 5% CO₂ condition for 24 hours. The obtained introduced cells were collected and seeded on a 96-well plate. After the culture supernatant was removed, 100 μL per well of various anti-human SIRPA antibodies or various control human IgG was added to each of various gene introduced cells at a final concentration of 0 to 10,000 ng/mL, and the mixture was allowed to stand at 4° C. for 25 minutes. After the mixture was centrifuged, the supernatant was removed, and cells were washed twice with 5% FBS-containing PBS. After the mixture was centrifuged, the supernatant was removed, 50 μL per well of a 1/400 diluted solution of PE Mouse anti-Human IgG antibody (BioLegend) was added, and the mixture was allowed to stand at 4° C. for 25 minutes. After the mixture was centrifuged, the supernatant was removed, and cells were washed twice with 5% FBS-containing PBS.
After the mixture was centrifuged, and the supernatant was removed, cells were suspended in 100 μL per well of 1× BD Stabilizing Fixative (Becton Dickinson), and the cell count was measured by flow cytometry (FACS Canto II: Becton Dickinson). For data analysis, FlowJo (TreeStar) was used. Cells were characterized by detecting forward scattered (FSC) light and side-scattered (SSC) light, and then the mean fluorescence intensity of PE was calculated. Binding of various antibodies to the family molecules was calculated by standardizing the fluorescence intensity using the mean fluorescence intensity of a sample in which the secondary antibody alone was allowed to react.

T1 sequence (O00241 30-398): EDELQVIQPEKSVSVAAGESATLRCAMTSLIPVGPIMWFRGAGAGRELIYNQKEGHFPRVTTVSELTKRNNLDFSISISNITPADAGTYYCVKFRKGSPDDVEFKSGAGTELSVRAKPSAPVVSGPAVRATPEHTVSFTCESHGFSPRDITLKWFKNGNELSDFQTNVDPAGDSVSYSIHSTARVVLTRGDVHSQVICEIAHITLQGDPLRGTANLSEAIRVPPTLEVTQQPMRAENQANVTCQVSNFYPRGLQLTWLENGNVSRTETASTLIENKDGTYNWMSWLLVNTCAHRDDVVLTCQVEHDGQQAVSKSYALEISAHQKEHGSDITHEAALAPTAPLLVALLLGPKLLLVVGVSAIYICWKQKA

B1: humanized anti-SIRPA antibody hD13_H1L3 (antibody, human IgG4 S228P, kappa, F234A L235A, V domains shown)
VH: QVQLVESGGGVVQPGRSLRLSCAASGFTFSDYGMIWVRQAPGKGLEWVASISSSSSYIYYADSVKGRFTISRDNSKNRLYLQMNSLRAEDTAVYYCARRYYGFNYPFDYWGQGTMVTVSS
VL: DTQLTQSPSSLSASVGQRVTITCGASKSVRTYMHWYQQKPGKQPKLLIYSASNLEAGVPSRFSGSGSGTDFTLTISSLQPEDFATYYCQQSNEPPYTFGQGTKLEIKR
notes: hH1 heavy chain (IgG4proFALA) and hL3 kappa light chain; also called hD13_HIL3; HIL3 antibody
EC50 (read off the curve): ~0.03 µg/mL
